Earlier results as cited in US20120107229A1, “NOVEL NANO-PROBES FOR MOLECULAR IMAGING AND TARGETED THERAPY OF DISEASES” (priority 2009, published 2012).

Target: T1, CD44 (Homo sapiens, UniProt P16070)
T1 construct: host or cells: melanoma cells (collagen fragment only)
T1 sequence (P16070 21-742, species assumed): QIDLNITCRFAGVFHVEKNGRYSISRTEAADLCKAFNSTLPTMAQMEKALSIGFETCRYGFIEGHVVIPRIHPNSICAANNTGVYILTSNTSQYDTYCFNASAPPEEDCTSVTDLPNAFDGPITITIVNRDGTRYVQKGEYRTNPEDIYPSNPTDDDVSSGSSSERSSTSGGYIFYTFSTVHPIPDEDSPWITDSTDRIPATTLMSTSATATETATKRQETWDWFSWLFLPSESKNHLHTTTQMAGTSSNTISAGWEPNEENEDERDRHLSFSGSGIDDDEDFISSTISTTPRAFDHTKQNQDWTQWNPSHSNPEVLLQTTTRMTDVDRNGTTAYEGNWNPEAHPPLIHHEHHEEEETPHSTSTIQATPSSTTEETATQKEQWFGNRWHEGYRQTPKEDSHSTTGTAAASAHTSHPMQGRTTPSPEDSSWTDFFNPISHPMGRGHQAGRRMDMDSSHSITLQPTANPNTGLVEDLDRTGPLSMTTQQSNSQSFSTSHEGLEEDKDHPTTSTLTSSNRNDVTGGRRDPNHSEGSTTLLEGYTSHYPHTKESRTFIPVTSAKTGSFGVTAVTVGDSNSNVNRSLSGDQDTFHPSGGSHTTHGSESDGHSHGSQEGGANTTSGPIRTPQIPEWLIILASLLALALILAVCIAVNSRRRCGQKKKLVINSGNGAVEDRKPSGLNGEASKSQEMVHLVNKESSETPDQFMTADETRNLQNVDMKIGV

Sequence | binding to CD44 on cells (melanoma cells) | share of the binding of CD44 to intact fibronectin (fibronectin digestion and fractionation studies) [%]
GVKGDKGNPGWPGAP | found to bind with CD44 on melanoma cells | 
KNNQKSEPLIGRKKT |  | 65.5
